Data published in PMC2830281.

What was measured:
Test in all cases: latex bead solid phase immunoassay read by flow cytometry
[1] = target: mouse IgA (native, on latex beads) (mouse)
[2] = target: mouse IgG3 (native, on latex beads) (mouse)
[3] = target: mouse IgG2a (native, on latex beads) (mouse)
[4] = target: mouse IgG2b (native, on latex beads) (mouse)
[5] = target: mouse IgG1 (native, on latex beads) (mouse)
[6] = target: mouse IgM (native, on latex beads) (mouse)

Measured: fold lower mean fluorescence intensity than beads with catfish IgM

Sequence of mouse IgG2a (native, on latex beads) (mouse) (P01863 whole entry, chain 1 of 2, other chains not shown): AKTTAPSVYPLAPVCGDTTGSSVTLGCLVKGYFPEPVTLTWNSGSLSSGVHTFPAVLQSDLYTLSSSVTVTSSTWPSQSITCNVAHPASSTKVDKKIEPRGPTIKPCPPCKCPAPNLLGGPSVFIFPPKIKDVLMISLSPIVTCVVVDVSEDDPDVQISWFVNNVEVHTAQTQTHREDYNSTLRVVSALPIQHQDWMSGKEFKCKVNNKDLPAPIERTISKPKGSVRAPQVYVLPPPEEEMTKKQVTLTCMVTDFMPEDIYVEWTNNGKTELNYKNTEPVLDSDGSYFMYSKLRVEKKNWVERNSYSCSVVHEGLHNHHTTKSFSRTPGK
Sequence of mouse IgM (native, on latex beads) (mouse) (P01872 whole entry, chain 1 of 3, other chains not shown): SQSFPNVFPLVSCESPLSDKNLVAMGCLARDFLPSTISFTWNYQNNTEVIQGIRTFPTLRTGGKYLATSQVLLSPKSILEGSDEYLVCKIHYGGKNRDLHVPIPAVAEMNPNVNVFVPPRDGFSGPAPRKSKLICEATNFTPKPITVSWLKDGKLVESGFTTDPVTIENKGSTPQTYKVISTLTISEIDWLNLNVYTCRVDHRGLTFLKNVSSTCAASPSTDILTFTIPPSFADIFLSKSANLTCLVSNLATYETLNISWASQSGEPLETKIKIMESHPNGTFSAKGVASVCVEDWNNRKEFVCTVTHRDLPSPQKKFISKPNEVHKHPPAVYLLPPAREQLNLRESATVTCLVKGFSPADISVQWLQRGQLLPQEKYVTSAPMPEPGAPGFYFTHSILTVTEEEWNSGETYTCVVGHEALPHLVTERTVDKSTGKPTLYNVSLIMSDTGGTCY
Sequence of mouse IgM (native, on latex beads) (mouse) (P01592 22-159, chain 3 of 3, other chains not shown, further chain): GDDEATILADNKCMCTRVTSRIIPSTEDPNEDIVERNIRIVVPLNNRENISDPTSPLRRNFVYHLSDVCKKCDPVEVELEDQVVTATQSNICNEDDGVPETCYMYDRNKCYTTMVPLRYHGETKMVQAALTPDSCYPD

recombinant IpFcRI (D1-D2-D3), channel catfish soluble FcμR (receptor)
5 fold: all assays above
